Reference: paper PMC10868123

Target: VPS13C, endogenous in HEK-293 cells [human (endogenous in HEK-293 FT/HEK-293 T)]
Assay: co-IP (anti-GFP IP, immunoblot quantification)
Details: N = 4; parent: 1; read off a plot

| Substance | ratio to parent |
| --- | --- |
| eGFP-Rab10 WT mutant T73A [not stated] / VPS13C, endogenous in HEK-293 cells [human (endogenous in HEK-293 FT/HEK-293 T)] chain 1 T73A | 0.34 |
| eGFP-Rab10 WT mutant T73E [not stated] / VPS13C, endogenous in HEK-293 cells [human (endogenous in HEK-293 FT/HEK-293 T)] chain 1 T73E | 1.3 |
